Read-outs that look alike come from different tables or passages of the source.
B1: G glycoprotein: purified G glycoprotein isolated from RSV/A2-infected Vero cells (protein)
chain: MSKNKDQRTAKTLERTWDTLNHLLFISSCLYKLNLKSVAQITLSILAMIISTSLIIAAIIFIASANHKVTPTTAIIQDATSQIKNTTPTYLTQNPQLGISPSNPSEITSQITTILASTTPGVKSTLQSTTVKTKNTTTTQTQPSKPTTKQRQNKPPSKPNNDFHFEVFNFVPCSICSNNPTCWAICKRIPNKKPGKKTTTKPTKKPTLKTTKKDPKPQTTKSKEVPTTKPTEEPTINTTKTNIITTLLTSNTTGNPELTSQMETFHSTSSEGNPSPSQVSTTSEYPSQPSSPPNTPRQ

Legend:
[1] = system: murine spleen leukocyte cell migration; assay: Murine leukocyte chemotaxis in modified Boyden chamber; type: cell-based, mouse
Procedure: The chemotactic index was determined from the fold increase of murine spleen leukocyte cell migration toward the chemoattractant (e.g., Fkn or G glycoprotein) over the leukocyte migration toward media alone control, using modified Boyden chambers. Fkn, G glycoprotein, recombinant polyhistidine-tagged G glycoprotein (GHIS), anti-CX3CR1 monoclonal antibody (2A9-1), normal rabbit serum, rabbit anti-CX3CR1 serum, anti-G glycoprotein monoclonal antibody (131-2G) or anti-F glycoprotein monoclonal antibody (131-2A) were added to the upper chamber to examine antagonism of cell migration toward the chemoattractant in the lower chamber.
Leukocyte chemotaxis toward Fkn, G glycoprotein or media was measured according to Boyden^46 using 24 well plates (Costar, Cambridge, Mass.) with 3 μm filter inserts (Nalge Nunc, Rochester, N.Y.) coated with an extracellular matrix consisting primarily of laminin, collagen IV and proteoglycan (ECM, Sigma, St. Louis, Mo.). For murine studies, 5×10^5 naïve spleen cells was placed in the upper chamber and 10 nM mouse Fkn or 10 nM G glycoprotein, anti-CX3CR1 antibody, anti-G or anti-F glycoprotein monoclonal antibody, normal rabbit sera, rabbit anti-CCR5 sera or media was placed in the upper or lower chamber as appropriate. For human studies, 10^6 density gradient purified (Lymphocyte Separation Media, ICN Biomedicals, Aurora, Ohio, per manufacture instructions) peripheral blood mononuclear cells (PBMC) from normal human adult donors was placed in the upper chamber in the presence or absence of 1 μM peptide RT33, and 10 nM human Fkn, 10 nM G glycoprotein or 1 μM peptide RT33 placed in the lower chambers. The modified Boyden chamber was incubated at 37° C. for 4-6 h, the inserts removed, washed in PBS (GIBCO BRL), fixed in 3% gluteraldehyde and stained in formalin-buffered 0.01% crystal violet. Chemotactic cells were visualized with a microscope. Chemotactic cells were analyzed for CX3CR1 expression by collecting cells from the upper or lower modified Boyden chambers, antibody staining (2A9-1) and flow cytometry as described. Leucocytes chemotactic toward G or Fkn expressed a higher percent of CX3CR1 in the lower (25-30%) versus upper chamber (7-11%).

[2] = biological target: T1, CX3CR1 (293-CX3CR1 cells) (Homo sapiens, UniProt P49238); assay: G glycoprotein and Fkn binding to 293-CX3CR1 cells by flow cytometry; settings: for percent positive staining of CX3CR1-293 cells: representative experiment, FIG. 1
T1 construct: expressed in transfected cells
T1 sequence (P49238 1-355): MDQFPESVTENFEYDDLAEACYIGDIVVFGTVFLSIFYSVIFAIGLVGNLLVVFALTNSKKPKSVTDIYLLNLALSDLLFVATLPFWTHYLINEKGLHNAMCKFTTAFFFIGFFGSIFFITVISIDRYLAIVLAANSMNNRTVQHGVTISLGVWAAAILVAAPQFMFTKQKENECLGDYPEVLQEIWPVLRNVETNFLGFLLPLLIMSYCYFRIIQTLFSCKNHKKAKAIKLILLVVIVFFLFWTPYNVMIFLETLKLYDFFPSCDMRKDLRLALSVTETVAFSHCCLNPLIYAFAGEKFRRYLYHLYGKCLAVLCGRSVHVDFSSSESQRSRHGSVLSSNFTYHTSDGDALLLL
Procedure: Purified G glycoprotein was examined for binding to 293-CX3CR1 cells^33. A pcDNA 3.1 plasmid containing the CX3CR1 gene and a neomycin resistance gene was used to stably transfect human embryonic kidney (HEK) cells. Neomycin resistance was used for selection and maintenance of plasmid transfection of human embryonic kidney cells.
All binding studies were done on ice and either G glycoprotein or human Fkn (R&D Diagnostics, Minneapolis, […]) containing 1% bovine serum albumin (Sigma) and incubated with the 293-CX3CR1 cells or 293 control cells for 30 min at 4° C. […] For inhibition studies, 100 pM-1 μM human Fkn or G glycoprotein was preincubated with the cells for 30 min at 4° C. Without washing, 100 pM of either Fkn or G glycoprotein was added and incubated for 30 min at 4° C. The cells were washed, blocked with FcγRIII blocking antibody (HB197) for 30 min on ice, washed and stained as appropriate with either an anti-G glycoprotein monoclonal antibody cocktail (132-5B, 132-5G, 130-2G, 232-IF) or a biotinylated anti-G glycoprotein monoclonal antibody cocktail (130-2G, 131-2G) or anti-Fkn monoclonal antibody (51637.11; R&D Diagnostics). Concentrations of 1 μg of anti-G glycoprotein monoclonal antibody (131-2G)^34, rabbit anti-CX3CR1 sera^33, and anti-CX3CR1 monoclonal antibody containing 10 μg/ml heparin were used in all experiments. […] Staining was detected with absorbed FITC-goat anti-mouse (H & L chain) monoclonal antibody (PharMingen, San Diego, Calif.) or streptavidin-PE (PharMingen) using flow cytometry (FACScan, Becton-Dickinson, Mountain View, Calif.). A 76 amino acid ^125I-Fkn polypeptide comprising the […] (NEN, Boston, Mass.) was used in radioligand studies^33. As a control, the void volume following purified G glycoprotein passaged over an anti-G glycoprotein antibody (130-2G) affinity column was examined by flow cytometry for binding to either 293 or 293-CX3CR1 cells.
The receptor for Fkn, CX3CR1, was previously identified and characterized using anti-CX3CR1 rabbit antiserum and CX3CR1-transfected human embryonic kidney cells (293-CX3CR1 cells)^33.
The percent Fkn-maximum binding was calculated using the equation: [% G (or Fkn) 293-CX3CR1]-[% G (or Fkn) 293]/[% Fkn (10 nM) 293-CX3CR1]-[% Fkn (10 nM) 293], where G=G glycoprotein, Fkn=fractalkine, 293-CX3CR1=CX3CR1-transfected 293, 293=untransfected 293. The concentration of G glycoprotein was estimated using a molecular weight of 90 kD.

[3] = biological target: T2, Fkn binding to 293-CX3CR1 cells (Homo sapiens, UniProt P49238)
T2 construct: host or cells: HEK 293 cells stably transfected with CX3CR1

[4] = substance added to upper chamber as antagonist
[5] = 10 nM ligand, 293-CX3CR1 minus 293 binding relative to 10 nM Fkn

Molecule	chemotactic index toward G glycoprotein [1, 4]	inhibition of leukocyte chemotaxis toward G glycoprotein ([1]; substance in upper chamber)	Fkn-Maximum Binding (%) ([2]; 10 pM ligand)	Fkn-Maximum Binding (%) ([2]; 100 pM ligand)	Fkn-Maximum Binding (%) ([2]; 1 nM ligand)	Fkn-Maximum Binding (%) [2, 5] [%]	percent positive staining of CX3CR1-293 cells ([2]; 10 nM ligand) [%]	concentration saturating 293-CX3CR1 binding ([2]; 30 min at 4° C.) [nM]	Range of Inhibition (%) of Fkn binding ([3]; heparin 5 μg/ml + peptide 1 μM)	chemotactic index toward Fkn [1, 4]	inhibition of leukocyte chemotaxis toward Fkn ([1]; substance in upper chamber)	Range of Inhibition (%) of Fkn binding ([3]; heparin 5 μg/ml + G glycoprotein 10 nM)	binding to 293-CX3CR1 cells ([2]; wheat germ lectin column fraction (G, F glycoprotein) or purified recombinant polyhistidine-tagged G glycoprotein) [%]
Fkn: CX3C chemokine fractalkine (R&D), ligand of CX3CR1 [reference compound]	1.2	approximately 75%	46	98	99	98	88	1 to 10					
TCWAICKRIPNK [RT33]									70-80%				
B1			40	80	87	88	84			3.2	approximately 37%	80-85%	70

From patent publication US8173131B2, “Compositions and methods for modulating RSV infection and immunity” (PerkinElmer Health Sciences, Inc., priority 2000, dated 2012)
